Measured values from article PMC2094074 (Nucleic Acids Research, 2007).

B1: His-tagged hHus1 expressed in E. coli (natural protein, human, UniProt O60921 1-280, looked up)
chain: MKFRAKIVDGACLNHFTRISNMIAKLAKTCTLRISPDKLNFILCDKLANGGVSMWCELEQENFFNEFQMEGVSAENNEIYLELTSENLSRALKTAQNARALKIKLTNKHFPCLTVSVELLSMSSSSRIVTHDIPIKVIPRKLWKDLQEPVVPDPDVSIYLPVLKTMKSVVEKMKNISNHLVIEANLDGELNLKIETELVCVTTHFKDLGNPPLASESTHEDRNVEHMAEVHIDIRKLLQFLAGQQVNPTKALCNIVNNKMVHFDLLHEDVSLQYFIPALS
B3: GST-hRad1 (natural protein, human, UniProt O60671 1-282, looked up)
chain: MPLLTQQIQDEDDQYSLVASLDNVRNLSTILKAIHFREHATCFATKNGIKVTVENAKCVQANAFIQAGIFQEFKVQEESVTFRINLTVLLDCLSIFGSSPMPGTLTALRMCYQGYGYPLMLFLEEGGVVTVCKINTQEPEETLDFDFCSTNVINKIILQSEGLREAFSELDMTSEVLQITMSPDKPYFRLSTFGNAGSSHLDYPKDSDLMEAFHCNQTQVNRYKISLLKPSTKALVLSCKVSIRTDNRGFLSLQYMIRNEDGQICFVEYYCCPDEEVPESES
B4: GST-hRad9 (natural protein, human, UniProt Q99638 1-391, looked up)
chain: MKCLVTGGNVKVLGKAVHSLSRIGDELYLEPLEDGLSLRTVNSSRSAYACFLFAPLFFQQYQAATPGQDLLRCKILMKSFLSVFRSLAMLEKTVEKCCISLNGRSSRLVVQLHCKFGVRKTHNLSFQDCESLQAVFDPASCPHMLRAPARVLGEAVLPFSPALAEVTLGIGRGRRVILRSYHEEEADSTAKAMVTEMCLGEEDFQQLQAQEGVAITFCLKEFRGLLSFAESANLNLSIHFDAPGRPAIFTIKDSLLDGHFVLATLSDTDSHSQDLGSPERHQPVPQLQAHSTPHPDDFANDDIDSYMIAMETTIGNEGSRVLPSISLSPGPQPPKSPGPHSEEEDEAEPSTVPGTPPPKKFRSLFFGSILAPVRSPQGPSPVLAEDSEGEG
B7: His-tagged hTDG-ΔC1(1-308) (domain or fragment, human, UniProt Q13569 1-308, looked up)
chain: MEAENAGSYSLQQAQAFYTFPFQQLMAEAPNMAVVNEQQMPEEVPAPAPAQEPVQEAPKGRKRKPRTTEPKQPVEPKKPVESKKSGKSAKSKEKQEKITDTFKVKRKVDRFNGVSEAELLTKTLPDILTFNLDIVIIGINPGLMAAYKGHHYPGPGNHFWKCLFMSGLSEVQLNHMDDHTLPGKYGIGFTNMVERTTPGSKDLSSKEFREGGRILVQKLQKYQPRIAVFNGKCIYEIFSKEVFGVKVKNLEFGLQPHKIPDTETLCYVMPSSSARCAQFPRAQDKVHYYIKLKDLRDQLKGIERNMDV

Tests used:
Experiment in all cases: pull-down
[1] = biological target: GST-hTDG (full length) (human, UniProt Q13569 1-410)
[2] = biological target: B7
[3] = biological target: His-tagged human thymine DNA glycosylase, full length (hTDG-full, residues 1-410) (human, UniProt Q13569 1-410)
[4] = biological target: B1
[5] = biological target: B4
[6] = biological target: B3

**Q.** Does B1 bind [1]?
**A.** binds

B2: GST-hHus1 (natural protein, human, UniProt O60921 1-280, looked up)
chain: MKFRAKIVDGACLNHFTRISNMIAKLAKTCTLRISPDKLNFILCDKLANGGVSMWCELEQENFFNEFQMEGVSAENNEIYLELTSENLSRALKTAQNARALKIKLTNKHFPCLTVSVELLSMSSSSRIVTHDIPIKVIPRKLWKDLQEPVVPDPDVSIYLPVLKTMKSVVEKMKNISNHLVIEANLDGELNLKIETELVCVTTHFKDLGNPPLASESTHEDRNVEHMAEVHIDIRKLLQFLAGQQVNPTKALCNIVNNKMVHFDLLHEDVSLQYFIPALS
**Q.** Does B2 bind [2]?
**A.** binds

**Q.** Does B3 bind [3]?
**A.** binds

**Q.** Does B3 bind [2]?
**A.** binds

**Q.** Does B4 bind [3]?
**A.** binds

B5: GST-hTDG-N(1-124) (domain or fragment, human, UniProt Q13569 1-124, looked up)
chain: MEAENAGSYSLQQAQAFYTFPFQQLMAEAPNMAVVNEQQMPEEVPAPAPAQEPVQEAPKGRKRKPRTTEPKQPVEPKKPVESKKSGKSAKSKEKQEKITDTFKVKRKVDRFNGVSEAELLTKTL
**Q.** Does B5 bind [4]?
**A.** binds

B6: His-tagged hTDG(67-308) (domain or fragment, human, UniProt Q13569 67-308, looked up)
chain: TTEPKQPVEPKKPVESKKSGKSAKSKEKQEKITDTFKVKRKVDRFNGVSEAELLTKTLPDILTFNLDIVIIGINPGLMAAYKGHHYPGPGNHFWKCLFMSGLSEVQLNHMDDHTLPGKYGIGFTNMVERTTPGSKDLSSKEFREGGRILVQKLQKYQPRIAVFNGKCIYEIFSKEVFGVKVKNLEFGLQPHKIPDTETLCYVMPSSSARCAQFPRAQDKVHYYIKLKDLRDQLKGIERNMDV
**Q.** Which results are given for B6?
**A.** binding result [5]: binds; binding result [6]: binds

**Q.** Does B7 bind [5]?
**A.** binds
